For this assay, the target named is Pyruvate kinase M2 isoform (human (endogenous in A549)) (UniProt P14618). Briefly: cross-linking; A549 cells washed with PBS pH 8.0 and treated with BS3 for 1 h at room temperature before lysis in loading buffer; dimers and tetramers by immunoblot; cells with eEF2K depletion, overexpression or A484954. On the technique in general: A western blot detects proteins with antibodies after separation by electrophoresis.

The text below walks through data of article PMC7020344.

In general, stoichiometry N refers to a count of units in the complex or per binding partner.

Pyruvate kinase M2 isoform, P14618 1-531 (enzyme; other documents disagree on this pair), sequence (P14618 whole entry, canonical isoform): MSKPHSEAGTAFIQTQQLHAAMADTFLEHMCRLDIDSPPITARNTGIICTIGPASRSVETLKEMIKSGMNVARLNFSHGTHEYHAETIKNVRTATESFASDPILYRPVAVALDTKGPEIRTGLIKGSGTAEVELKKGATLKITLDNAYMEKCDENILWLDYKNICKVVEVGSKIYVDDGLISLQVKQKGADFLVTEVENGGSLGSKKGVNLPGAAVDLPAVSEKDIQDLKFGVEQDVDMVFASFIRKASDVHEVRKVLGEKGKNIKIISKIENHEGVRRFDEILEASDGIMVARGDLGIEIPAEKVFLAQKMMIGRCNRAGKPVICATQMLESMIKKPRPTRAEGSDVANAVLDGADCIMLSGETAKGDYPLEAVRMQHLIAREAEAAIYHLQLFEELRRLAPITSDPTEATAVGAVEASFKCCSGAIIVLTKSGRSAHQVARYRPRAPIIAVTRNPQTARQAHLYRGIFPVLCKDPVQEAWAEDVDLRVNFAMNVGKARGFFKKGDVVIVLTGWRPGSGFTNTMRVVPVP

In turn, “Pyruvate kinase M2 isoform, P14618 1-531 (enzyme; other documents disagree on this pair)” showed a stoichiometry N of 2.
